Experimental data from the nanobody polyreactivity screen of Harvey et al. (2022).

experiment: yeast display, Sf9 membrane polyspecificity reagent, FACS + sequencing; frameworks hold sequencing errors
Outline: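 Genes from sorted yeast were amplified by colony PCR, read by MiSeq 2 × 250 sequencing and filtered on CDR length. These cells carried a synthetic nanobody library in Saccharomyces cerevisiae BJ5465 and were sorted by FACS into low and high (top ~1%) gates on anti-HA and streptavidin fluorescence. Polyreactivity is labelled according to the gate of origin.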

Row | Sequence | polyreactivity (PSR sort gate)
1 | QVQLVESGGGLVQAGGSLSLSCAASGSIFWRNAMGWYRPAPGKERELVAAITSGGSTYYADSVKGRFTISRDNAKNTVYLQMNSLKPEDTAVYYCAAGYSYRYDYWGQGTQVTVSS | low polyreactivity
2 | QVQLVESGGGLVQAGGSLSLSCAASGSIFWYYAMGWYRPAPGKERELVATIDVSAGSTYADSVKGRFTIARDNAKNTVYLQMNSLKPEDTAVYDCNADHYPGEVFYVSSTRYEREYWGQGTQVTVSS | low polyreactivity
3 | QVQLVESGGGLVQAGGSLSLSCAASGSISDVYAMGGYRQAPGKERELVAAITSGASTYYADSVKGRFTISRDNAKNTVYLQMNSLKPEDTAVYYCAAGYSDWYYAAYNSWGQGTQVTVST | low polyreactivity
4 | QVQLVESGGGLVQAGGSLSLSCAASGSISDVYPMGGYRQAPRKERELVAAITSGASTYYADSVKGRFTISRDNAKNTVYLQLNSLKTEDTAVYYCAAGYSDWYYADYNSWGQGTQVTVSS | low polyreactivity
5 | QVQLVESGGGLVQAGGSLSLSCAASGSNFVKNAMGWYRPAPGKERELVATISTGGSTYYADSVKGRFTISRDNAKNTVYLQMNSLKPEDTAVYYCATDFYPRFLLRSYRPYYYWGQGTQVTLSS | low polyreactivity
6 | QVQLVESGGGLVQAGGSLSLSCAASGSTFAFYAMGCYRQAPGKERDLVAASTRSAGSTYYADSVKGRFTISRDNATTTVYLPMNSLKREDTAVYYCAKYVSYSRTLYDYWGQGTQVTVSS | low polyreactivity
7 | QVQLVESGGGLVQAGGSLSLSCAASGSTFARYAMGWYRQAPGKERELVAAISITGSTYYADSVKGRFTISRDNAKNTVYLQMKSLKPEDTAVYYCNVKSKYRYGYWGQGTQVTVSS | high polyreactivity
8 | QVQLVESGGGLVQAGGSLSLSCAASGSTFAYYAMGWYREAPGQERELVAGITWTGGSTYYADSVKGRFTISRDNAKNSVYLQMNSLKPEDTAVYYCAADRYFYEGDYWGQVTQVTVSS | low polyreactivity
9 | QVQLVESGGGLVQAGGSLSLSCAASGSTFYSNAMGWYRQAPGKERELVAAISIGGSTYYADSVKGRFTISRDNAKNTVYLQMNSLKPEDTAVYYCAVDYRHSSSWNAGRWEMYYWGQGTQVTVSS | low polyreactivity
10 | QVQLVESGGGLVQAGGSLSLSCAASGYIFGPYDMGWYRQAPGKERELVAVIDWSGGSTYYADSVKGRFTISRDNAKNTFYLQMNSLKPEDTAVYYCAADISWGVSQFDYWGQGTQVTVSS | low polyreactivity
11 | QVQLVESGGGLVQAGGSLSLSCAASGYTFSYYAMGWYRQAPGKERELVARITYSGGSTYYADSVKGRFTISRDNAKNTGYLQIKSLKPEDTAVYYCAARLRYPYWYYYWGQGTQVTVSS | high polyreactivity
12 | QVQLVESGGGLVQAGGSLSLSCGASGRIFSLYAMGWYRQAPGKERELVAAMSWGAGSTYYADSVKGRFTISRDNAKNTVYLQMNSLKREATAVYYCATGRRYYYPYASYLKYGYWGQGTQVTVSS | high polyreactivity
13 | QVQLVESGGGLVQAGGSLSLSSAASGFIFHTYAMRWYRQAPGKERELVASITWRGGRTYYADSVKGRFTISRDNAKNTVYLQLNSLNPVYTAVYYCAAVTFSYDGYDYWGQGTQVTVSS | low polyreactivity
14 | QVQLVESGGGLVQAGGSLSLSSAASGPIFAYNAMGWYRQAPGKERELVAAISYSGGSTYYADSLKGRFTISRDNAKNTVYIQMNSLKPEDTAVYYCNAVYRYLTYRYDYWGQGTQVTVSS | high polyreactivity
15 | QVQLVESGGGLVQAGGSLSVSCAASGFTFDRYAMGWYRQAPGKERELVAAISGSGDSTFYADSVKGRFTISRDNAKNTVYLQMNSLKPVDTAVYYCNAKRSFRWTYGYWGQGSQVTVSS | high polyreactivity
16 | QVQLVESGGGLVQAGGSPRLSCAASGIIFQHNAMGWYRQAPGKERELVAAISSNGGRTFYADSVKGRFTISRDNAKNTVYLQMNSLKPEDTAVYYCAADRPAYGVGYWGQGTQVTVSS | high polyreactivity
17 | QVQLVESGGGLVQAGGSPRLSCAASGSISNYYGMGWYRQAPRKERELVAAITWGGGRTNYADSVKGRFTISRDNAKNTVYLQMNSLKPEDTAVYYCAKVSVTHRYGAGGDYWGQGTQVTVSS | low polyreactivity
